We go through nine molecules from patent US20030232009A1 (Amgen, published 2003).

Numbering of substitutions follows the chain as printed. Where two headings read alike, the source gives them in different places.

Assay [1] addresses T1, chimeric CD45RB (full length human CD45RB with the macaque RB exon) transiently expressed in CHO cells (human; macaque, UniProt P08575-9 26-33; P08575-9 81-1192).
T1 construct: whole chimeric protein on CHO cells; also called Macaque CD45RB CHO
T1 sequence: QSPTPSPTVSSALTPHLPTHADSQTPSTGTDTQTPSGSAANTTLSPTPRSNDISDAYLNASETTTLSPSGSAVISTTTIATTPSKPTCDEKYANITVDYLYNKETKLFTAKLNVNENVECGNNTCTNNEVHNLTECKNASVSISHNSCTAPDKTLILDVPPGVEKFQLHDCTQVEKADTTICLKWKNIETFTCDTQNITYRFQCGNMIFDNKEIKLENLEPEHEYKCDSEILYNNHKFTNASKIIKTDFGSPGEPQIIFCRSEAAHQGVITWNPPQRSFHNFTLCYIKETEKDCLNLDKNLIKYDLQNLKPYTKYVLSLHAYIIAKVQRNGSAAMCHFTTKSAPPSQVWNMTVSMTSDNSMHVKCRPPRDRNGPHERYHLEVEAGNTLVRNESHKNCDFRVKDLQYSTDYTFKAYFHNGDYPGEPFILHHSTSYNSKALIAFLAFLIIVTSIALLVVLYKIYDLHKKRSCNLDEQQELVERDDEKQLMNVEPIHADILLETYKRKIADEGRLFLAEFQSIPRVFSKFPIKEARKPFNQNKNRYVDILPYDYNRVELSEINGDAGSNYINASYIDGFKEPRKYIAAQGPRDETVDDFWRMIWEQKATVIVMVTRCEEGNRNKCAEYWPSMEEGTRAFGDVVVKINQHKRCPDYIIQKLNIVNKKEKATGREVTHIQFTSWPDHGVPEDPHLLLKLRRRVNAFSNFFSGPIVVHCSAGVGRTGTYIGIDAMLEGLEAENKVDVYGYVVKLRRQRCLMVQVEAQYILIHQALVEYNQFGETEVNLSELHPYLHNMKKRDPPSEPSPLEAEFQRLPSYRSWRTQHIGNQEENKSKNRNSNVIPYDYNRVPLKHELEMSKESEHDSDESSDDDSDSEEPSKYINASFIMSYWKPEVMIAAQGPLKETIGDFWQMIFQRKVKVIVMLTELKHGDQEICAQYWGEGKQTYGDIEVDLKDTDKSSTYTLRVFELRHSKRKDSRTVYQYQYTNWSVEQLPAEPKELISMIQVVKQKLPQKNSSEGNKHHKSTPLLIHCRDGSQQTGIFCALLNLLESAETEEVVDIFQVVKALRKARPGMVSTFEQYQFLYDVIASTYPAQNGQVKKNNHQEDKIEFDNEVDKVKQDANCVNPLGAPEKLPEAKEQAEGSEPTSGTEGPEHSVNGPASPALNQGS
Kind of assay: transiently transfected CHO cells.

A further assay concerns the target T2, Human 20.2 peptide (human).
T2 construct: synthetic peptide from the RB exon
T2 peptide: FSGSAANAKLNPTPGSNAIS
The experiment in a line: recombinant antibody on peptide.

The target of assay [2] is T3, Macaque 46 mer peptide (RB exon of macaque CD45RB) (macaque).
T3 construct: synthetic peptide
T3 peptide: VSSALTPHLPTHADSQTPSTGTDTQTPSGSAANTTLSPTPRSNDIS
The experiment in a line: recombinant antibody on peptide.

Assay [3] concerns the target T4, Human 46 mer peptide (RB exon of human CD45) (human).
T4 construct: synthetic peptide; also called CD45RB 46 mer
T4 peptide: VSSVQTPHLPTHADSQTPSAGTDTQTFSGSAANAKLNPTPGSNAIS
The experiment in a line: recombinant antibody on peptide.

In assay [4] the target is T5, Human 20.1 peptide (human).
T5 construct: synthetic peptide from the RB exon
T5 peptide: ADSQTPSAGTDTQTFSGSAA
The experiment in a line: ELISA, well supernatant on coated peptide. A general note: ELISA stands for enzyme-linked immunosorbent assay.

Assay [5] deals with T3, Macaque 46 mer peptide (RB exon of …). Kind of assay: ELISA, well supernatant on coated peptide.
Assay [6] addresses T4, Human 46 mer peptide (RB exon of human …). The experiment in a line: ELISA, well supernatant on coated peptide.
The target in a further assay is T6, Human 18 mer peptide (human).
T6 construct: synthetic peptide from the RB exon
T6 peptide: VSSVQTPHLPTHADSQTPC
The experiment in a line: recombinant antibody on peptide.

Assay [7] addresses T5, Human 20.1 peptide. The experiment in a line: recombinant antibody on peptide.
Assay [8] deals with T7, Human CD45RB (format not stated) (human, UniProt P08575-9 26-1192, limits assumed).
T7 construct: also called RB exon of CD45
T7 sequence (looked up): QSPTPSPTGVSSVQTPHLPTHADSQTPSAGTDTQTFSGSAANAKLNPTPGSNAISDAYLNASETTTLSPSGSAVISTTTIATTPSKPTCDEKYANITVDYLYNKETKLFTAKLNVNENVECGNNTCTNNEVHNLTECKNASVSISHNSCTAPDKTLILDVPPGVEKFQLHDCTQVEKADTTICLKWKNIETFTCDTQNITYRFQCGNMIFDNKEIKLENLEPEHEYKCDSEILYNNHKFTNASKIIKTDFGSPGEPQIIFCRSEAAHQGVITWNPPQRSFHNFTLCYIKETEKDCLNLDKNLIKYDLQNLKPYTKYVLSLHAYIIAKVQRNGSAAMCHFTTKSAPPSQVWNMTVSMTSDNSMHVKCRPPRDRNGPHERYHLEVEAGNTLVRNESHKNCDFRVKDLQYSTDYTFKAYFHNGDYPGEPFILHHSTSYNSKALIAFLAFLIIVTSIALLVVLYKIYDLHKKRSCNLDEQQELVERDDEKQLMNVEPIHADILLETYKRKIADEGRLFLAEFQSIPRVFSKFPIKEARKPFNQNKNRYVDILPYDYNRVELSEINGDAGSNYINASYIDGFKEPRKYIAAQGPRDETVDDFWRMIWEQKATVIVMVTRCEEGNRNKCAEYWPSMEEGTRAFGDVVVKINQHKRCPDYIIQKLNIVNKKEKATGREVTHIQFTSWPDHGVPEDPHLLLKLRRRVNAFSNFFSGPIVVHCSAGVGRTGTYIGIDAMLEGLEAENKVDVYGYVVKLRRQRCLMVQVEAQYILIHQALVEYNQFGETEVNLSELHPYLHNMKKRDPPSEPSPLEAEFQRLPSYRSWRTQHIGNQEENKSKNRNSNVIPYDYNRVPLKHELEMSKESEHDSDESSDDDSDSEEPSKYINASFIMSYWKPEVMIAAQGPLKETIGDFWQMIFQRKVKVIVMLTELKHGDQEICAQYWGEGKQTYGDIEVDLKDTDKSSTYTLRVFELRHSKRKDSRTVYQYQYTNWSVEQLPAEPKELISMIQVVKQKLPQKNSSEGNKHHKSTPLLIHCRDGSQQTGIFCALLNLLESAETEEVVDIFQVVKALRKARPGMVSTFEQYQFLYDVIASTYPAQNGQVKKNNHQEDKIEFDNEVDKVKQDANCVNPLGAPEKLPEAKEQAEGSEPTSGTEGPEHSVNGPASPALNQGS
The experiment in a line: screening of harvest 9.

Assay [9] deals with T5, Human 20.1 peptide. The experiment in a line: ELISA, well supernatant on coated peptide.
Assay [10] deals with T3, Macaque 46 mer peptide (RB exon of …). Kind of assay: ELISA, well supernatant on coated peptide.
Assay [11] deals with T4, Human 46 mer peptide (RB exon of human …). Kind of assay: ELISA, well supernatant on coated peptide.

B1: AB-CD45RB-XG2-556 (antibody, human IgG2, V domains shown)
VH: QVQLQESGPGLVKPSETLSLTCTVSGGSISGYYWSWIRQPAGKGLEWIGRIHTTGKTAYNPSLKSRVIMSVDTSKNLFSLKLTSVTAADTAVYYCARDYDFLTGYFDYWGQGTLVTVSS
VL: DVVMTQSPLSLPVTLGQPASISCRSSQSLVYSDGNTYLNWFQQRPGHSPRRLIYKVSNWDSGVPDRFSGSGSGTDFTLKISRVEAEDVGIYYCMQGTHWPPTFGQGTRVEIK
notes: recombinant human IgG2 kappa; also called sc556
Turning to B1, the binding result (in assay [1]; with Human 20.2 peptide; in assay [2]; in assay [3]) was “no binding” in each case.

B2: AB-CD45RB-XG2-539 (antibody, human IgG2, V domains shown)
VH: B1 VH with Y32S, T53S, V71L
VL: B1 VL with S32G
notes: recombinant human IgG2 kappa; also called sc539
For B2, the binding result (in assay [1]; in the assay with Human 20.2 peptide; in [2]; in assay [3]) was “no binding” in each case.

B3: antibody in the supernatant of B cell culture well 255D9 (antibody, V domains shown)
VH: QVQLVESGGGVVQPGRSLRLSCAASGFTFSNYGMHWVRQAPGKGLEWVAVIWYDGSKKFYADSVKGRFTISRDNFEKTLYLQMNSLRAEDTAVYYCARGGGDFDYWGQGTLVTVSS
VL: EIVMTQSPATLSVSPGERATLSCRASQSLSGSYLAWYQQKPGQAPRLLIYSASTRATGIPARFSGSGSGTEFTLTISSLQSEDFAVYYCQQYNNWPPLTFGGGTKVEIK
notes: recombinant 713 came from this well
For B3, the ELISA reading with Human 20.1 peptide [4] was found to be 0.1; in [5], 0.1; in assay [6], 3.5.

B4: antibody in the supernatant of B cell culture well 227E10 (antibody, V domains shown)
VH: QVHLVESGGGLVKPGGSLRLSCAASGFTFINYYMTWIRQAPGKGLEWVSYISLSGSTIYYADSVKGRFTISRDNAKNSLFLQMNSLRAEDTAVYYCARRAATVTTFDYWGQGTLVTVSS
VL: EIVMTQSPATLSVSPGERATLSCRASQSVRSNLAWSQQKPGQAPRLLIYGASTRATGIPARFSGSGSGTEFTLTISSLQSEDFAVYYCQQYNNWPLTFGGGTKVEIK
For B4, the results for the ELISA reading (with Human 20.1 peptide [4]; in assay [5]; in assay [6]) were 0.1, 0.2 and 0.2, respectively.

B5: AB-CD45RB-XG2-662 (antibody, human IgG2, V domains shown)
VH: QVQLVESGGDLVKPGGSLRLSCAASGFSFSGYYLSWIRQAPGKGLEWVSYISLSGSFIKYADSVKGRFTISRDNAKKTLHLQMNSLRAEDTAVYYCARRTGTTTVFDYWGQGTLVTVSS
VL: B4 VL with I2V, R30N, S36Y, K39R, A55V
notes: recombinant human IgG2 kappa; also called sc662
B5: the binding result (with Human 18 mer peptide; with Human 20.1 peptide [7]; with Human 20.2 peptide; in [2]; in assay [3]) was “no binding” throughout.

B6: antibody in the supernatant of B cell culture well 250F2 (antibody, V domains shown)
VH: B5 VH
VL: B4 VL with I2V, R30N, S36Y, K39R, A55V
notes: recombinant 662 came from this well
As for B6, the ELISA reading with Human 20.1 peptide [4] was found to be 0.1; in assay [5] it was 0.2; in assay [6], 0.2.

B7: antibody in the supernatant of B cell culture well 283B2 (antibody, V domains shown)
VH: QVQLVESGGGLVKPGGSLRLSCAASGFTFNVYYMNWIRQAPGKGLEWVSYISTSSSAIYYADSVKGRFTISRDNAKNSLYLQMNSLRAEDTAVYYCARRTGSTTVFDYWGQGTLVTVSS
VL: B4 VL with M4L, V29I, R30N, S31N, S36Y, R61K, D82N, N93K
notes: recombinant 648 came from this well
For the molecule B7, the ELISA reading in the assay with Human 20.1 peptide [4] was determined as 0.1; in assay [5], 0.2; in [6] it was 0.2.

B8: AB-CD45RB-XG2-648 (antibody, human IgG2, V domains shown)
VH: B7 VH
VL: B4 VL with M4L, V29I, R30N, S31N, S36Y, R61K, D82N, N93K
notes: recombinant human IgG2 kappa; also called sc648
B8: the binding result in the assay with Human 18 mer peptide was “no binding”; with Human 20.1 peptide [7], “no binding”; in the assay with Human 20.2 peptide it was “no binding”; in [2], “no binding”; in assay [3] it was “no binding”; in assay [8], “binds”.

B9: antibody in the supernatant of B cell culture well 170B8 (antibody, V domains shown)
VH: AVQLLESGGGLIQPGGSLRLSCAASGFTFSSYAMSWVRQAPGKGLEWVSAISGSGGSTFYADSVRGRFTISRDNSKNTLYLQMNSLRVEDTAVYYCAKEVMGPIFFDYWGQGTLVTVSS
VL: EIVLTQSPGTLSLSPGERATLSCRASQSIISSALAWYQQKPGQAPRLLIYGASSRATGIPDRFSGSGSGTDFTLTISRLEPEDFAVYHCQQYGSTPLTFGGGTKVEIK
notes: recombinant 475 came from this well
For the molecule B9, the ELISA reading in the assay with Human 20.1 peptide [9] came out at 3.9; in assay [10], 0.8; in assay [11], 2.5.
